# Several values for one entry are separate records, joined by “and”; a condition that tells them apart may be missing. Identical values can stand only once. Like-named read-outs stand apart in the source and are kept apart here.
# What was measured:
# [1] = molecular target: human βB2-crystallin W196F (human) (UniProt P43320); assay: SEC
# [2] = molecular target: human βB2-crystallin W196F (human) (UniProt P43320); assay: AUC
# AUC = molecular target: the molecule itself; assay: AUC
# SEC [3] = molecular target: the molecule itself; assay: SEC
# SEC [4] = molecular target: the molecule itself; assay: SEC; remark: listed apart in the source
# human βB2-crystallin W196F, sequence (P43320 whole entry, stated change not applied): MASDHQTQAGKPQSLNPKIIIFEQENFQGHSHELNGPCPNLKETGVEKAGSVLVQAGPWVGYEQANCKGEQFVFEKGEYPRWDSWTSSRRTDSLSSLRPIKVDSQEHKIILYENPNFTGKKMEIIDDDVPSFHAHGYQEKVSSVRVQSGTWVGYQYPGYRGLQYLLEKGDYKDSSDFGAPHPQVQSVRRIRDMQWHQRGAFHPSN
Molecule,stoichiometry N [1],% dimer [2] [%],% tetramer [2] [%],% dimer (AUC) [%],% tetramer (AUC) [%],stoichiometry N (SEC [3]),stoichiometry N (SEC [4])
human βB2-crystallin W196F (from UniProt P43320 1-205) (natural protein),4 and 2,83.4,12.7,,,,
"human βB2-crystallin W151F (natural protein, UniProt P43320 1-205, looked up) MASDHQTQAGKPQSLNPKIIIFEQENFQGHSHELNGPCPNLKETGVEKAGSVLVQAGPWVGYEQANCKGEQFVFEKGEYPRWDSWTSSRRTDSLSSLRPIKVDSQEHKIILYENPNFTGKKMEIIDDDVPSFHAHGYQEKVSSVRVQSGTFVGYQYPGYRGLQYLLEKGDYKDSSDFGAPHPQVQSVRRIRDMQWHQRGAFHPSN",,,,92.2 ± 0.5,2.7 ± 0.1,2,
"human βB2-crystallin W85F (natural protein, UniProt P43320 1-205, looked up) MASDHQTQAGKPQSLNPKIIIFEQENFQGHSHELNGPCPNLKETGVEKAGSVLVQAGPWVGYEQANCKGEQFVFEKGEYPRWDSFTSSRRTDSLSSLRPIKVDSQEHKIILYENPNFTGKKMEIIDDDVPSFHAHGYQEKVSSVRVQSGTWVGYQYPGYRGLQYLLEKGDYKDSSDFGAPHPQVQSVRRIRDMQWHQRGAFHPSN",,,,79.7 ± 0.6,11.5 ± 0.6,2 and 4,
"human βB2-crystallin W59F (natural protein, UniProt P43320 1-205, looked up) MASDHQTQAGKPQSLNPKIIIFEQENFQGHSHELNGPCPNLKETGVEKAGSVLVQAGPFVGYEQANCKGEQFVFEKGEYPRWDSWTSSRRTDSLSSLRPIKVDSQEHKIILYENPNFTGKKMEIIDDDVPSFHAHGYQEKVSSVRVQSGTWVGYQYPGYRGLQYLLEKGDYKDSSDFGAPHPQVQSVRRIRDMQWHQRGAFHPSN",,,,48.7 ± 0.3,36.1 ± 0.4,2,4
"human βB2-crystallin W82F (natural protein, UniProt P43320 1-205, looked up) MASDHQTQAGKPQSLNPKIIIFEQENFQGHSHELNGPCPNLKETGVEKAGSVLVQAGPWVGYEQANCKGEQFVFEKGEYPRFDSWTSSRRTDSLSSLRPIKVDSQEHKIILYENPNFTGKKMEIIDDDVPSFHAHGYQEKVSSVRVQSGTWVGYQYPGYRGLQYLLEKGDYKDSSDFGAPHPQVQSVRRIRDMQWHQRGAFHPSN",,,,75.5 ± 0.3,22.3 ± 0.2,2 and 4,

# Source: paper PMC11201810 (Protein Science : A Publication of the Protein Society, 2024)
